The source of these data is article PMC2134296.

The target in the experiment is adenomatous polyposis coli (APC) protein (endogenous, MDCK cells) (dog (endogenous in MDCK)). Description: co-IP.

For “ΔN90 β-catenin (KT3-tagged, NH2-terminal 90 amino acids deleted) (from UniProt Q02248 91-781) (domain or fragment)”, the fold coimmunoprecipitated with APC protein relative to endogenous β-catenin was found to be 3 fold.
Regarding “ΔN131 β-catenin (KT3-tagged, NH2-terminal 131 amino acids deleted) (from UniProt Q02248 132-781) (domain or fragment)”, the fold coimmunoprecipitated with APC protein relative to endogenous β-catenin was determined as 3 fold.
In the case of “ΔN151 β-catenin (KT3-tagged, NH2-terminal 151 amino acids deleted) (from UniProt Q02248 152-781) (domain or fragment)” it was 3 fold.
